Assay results reported in US9127040B2, “Regulation of sodium channels by PLUNC proteins” (The University of North Carolina at Chapel Hill, priority 2011, dated 2015).
Ends that are not written are not given here.

T1: ENaC (Homo sapiens, UniProt P37088+P51168+P51170)
T1 construct: measured the transepithelial voltage under thin film conditions in human bronchial epithelial cultures; endogenous in cells; host or cells: primary human bronchial epithelial cultures (normal or CF donors)
T1 sequence (P37088 1-669): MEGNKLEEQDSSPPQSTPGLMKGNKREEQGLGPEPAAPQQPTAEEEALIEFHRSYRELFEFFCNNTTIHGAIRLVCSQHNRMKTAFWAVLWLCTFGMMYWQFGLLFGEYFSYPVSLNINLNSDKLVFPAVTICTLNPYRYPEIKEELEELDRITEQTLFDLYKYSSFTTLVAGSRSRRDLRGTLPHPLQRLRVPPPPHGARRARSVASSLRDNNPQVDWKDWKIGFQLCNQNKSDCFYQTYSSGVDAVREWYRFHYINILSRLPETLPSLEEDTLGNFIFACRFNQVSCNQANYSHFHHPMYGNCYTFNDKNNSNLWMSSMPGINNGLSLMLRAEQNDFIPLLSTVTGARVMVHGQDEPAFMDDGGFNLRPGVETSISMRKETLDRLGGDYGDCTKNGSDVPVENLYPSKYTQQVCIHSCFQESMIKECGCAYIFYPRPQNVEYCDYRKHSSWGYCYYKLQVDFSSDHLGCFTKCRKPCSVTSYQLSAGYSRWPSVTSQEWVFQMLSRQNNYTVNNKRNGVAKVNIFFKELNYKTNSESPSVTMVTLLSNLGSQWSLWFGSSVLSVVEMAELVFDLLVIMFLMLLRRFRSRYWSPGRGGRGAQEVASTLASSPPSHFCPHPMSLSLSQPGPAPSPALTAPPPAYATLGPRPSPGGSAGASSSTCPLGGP
T1 sequence (P51168 1-640): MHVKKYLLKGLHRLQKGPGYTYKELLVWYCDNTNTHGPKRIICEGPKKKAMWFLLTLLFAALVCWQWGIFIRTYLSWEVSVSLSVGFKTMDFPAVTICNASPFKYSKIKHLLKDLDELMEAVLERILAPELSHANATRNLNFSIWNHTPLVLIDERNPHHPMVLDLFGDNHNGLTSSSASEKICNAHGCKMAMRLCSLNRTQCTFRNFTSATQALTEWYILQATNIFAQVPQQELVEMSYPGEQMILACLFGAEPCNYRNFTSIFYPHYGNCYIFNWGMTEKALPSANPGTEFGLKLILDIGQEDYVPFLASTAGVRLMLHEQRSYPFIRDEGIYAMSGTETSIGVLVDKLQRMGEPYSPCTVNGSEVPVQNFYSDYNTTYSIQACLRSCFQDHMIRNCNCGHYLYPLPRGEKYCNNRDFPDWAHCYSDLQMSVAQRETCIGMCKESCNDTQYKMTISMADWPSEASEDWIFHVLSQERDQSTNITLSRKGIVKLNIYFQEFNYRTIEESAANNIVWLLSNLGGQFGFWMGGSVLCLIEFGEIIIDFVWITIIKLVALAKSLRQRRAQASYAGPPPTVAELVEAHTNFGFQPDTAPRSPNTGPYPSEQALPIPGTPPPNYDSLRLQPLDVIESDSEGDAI
T1 sequence (P51170 1-649): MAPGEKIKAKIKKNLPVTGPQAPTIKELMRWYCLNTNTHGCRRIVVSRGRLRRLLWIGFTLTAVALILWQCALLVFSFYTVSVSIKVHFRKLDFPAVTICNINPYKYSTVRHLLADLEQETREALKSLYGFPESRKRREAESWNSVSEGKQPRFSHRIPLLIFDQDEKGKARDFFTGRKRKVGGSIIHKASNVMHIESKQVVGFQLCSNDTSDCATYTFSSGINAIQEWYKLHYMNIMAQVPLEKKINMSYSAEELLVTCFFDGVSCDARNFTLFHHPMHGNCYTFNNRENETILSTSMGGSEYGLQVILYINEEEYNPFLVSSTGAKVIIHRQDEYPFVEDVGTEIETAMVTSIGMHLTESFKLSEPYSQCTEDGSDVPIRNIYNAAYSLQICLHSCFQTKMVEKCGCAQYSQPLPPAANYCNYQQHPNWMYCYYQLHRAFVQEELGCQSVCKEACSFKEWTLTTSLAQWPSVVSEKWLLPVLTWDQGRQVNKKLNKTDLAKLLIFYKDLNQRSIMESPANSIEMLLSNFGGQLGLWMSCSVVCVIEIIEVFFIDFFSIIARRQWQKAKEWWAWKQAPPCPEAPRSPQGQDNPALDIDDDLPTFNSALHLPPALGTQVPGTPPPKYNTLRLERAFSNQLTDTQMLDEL

B1: SPLUNC1: human SPLUNC1 (SEQ ID NO:1), 256 amino acid secreted PLUNC family protein; rSPLUNC1 is the purified V5/6His-tagged recombinant form (protein, listed as Homo sapiens)
chain: MFQTGGLIVFYGLLAQTMAQFGGLPVPLDQTLPLNVNPALPLSPTGLAGSLTNALSNGLLSGGLLGILENLPLLDILKPGGGTSGGLLGGLLGKVTSVIPGLNNIIDIKVTDPQLLELGLVQSPDGHRLYVTIPLGIKLQVNTPLVGASLLRLAVKLDITAEILAVRDKQERIHLVLGDCTHSPGSLQISLLDGLGPLPIQGLLDSLTGILNKVLPELVQGNVCPLVNEVLRGLDITLVHDIVNMLIHGLQFVIKV
modifications: V5/6His tag in recombinant form
notes: rSPLUNC1 is the purified V5/6His-tagged recombinant form

How the values were obtained:
[1] = Urinary Na+ excretion (natriuresis) in anesthetized mice after intravenous infusion; format: in vivo; conditions: 250 nmol/g BW/h intravenous infusion, unconscious mice
Description: To study the effects of SPLUNC1-derived peptides on the in vivo kidney, mice were anesthetized. After a baseline 45 min control clearance period, S18-type peptide or amiloride were infused intravenously over 30 min and the natriuretic response recorded over the subsequent 2-3 h.
Urinary Na^+ output was measured in unconscious mice (FIG. 32). Amiloride (38 nmol/g BW/h; ▪) and S18 (250 nmol/g BW/h; ▴) were added during the infusion period and urinary Na^+ excretion (UNaV) was measured throughout.

ENaC = target: T1, ENaC; assay: Transepithelial voltage (PD), thin film conditions, human bronchial epithelial cultures; format: cell-based
Description: Tissue procurement and cell culture: Cells were harvested by enzymatic digestion from human bronchial tissue as previously described under a protocol approved by the UNC School of Medicine IRB (Tarran et al., J. Gen. Physiol. 127:591 (2006)). Human excess donor lungs and excised recipient lungs were obtained at the time of lung transplantation from portions of main stem or […] bronchi and cells were harvested by enzymatic digestion. All preparations were maintained at an air-liquid interface in a modified bronchial epithelial medium and used 2-5 weeks after seeding on 12 mm T-Clear inserts (Corning Costar) coated with human placental type VI collagen (Sigma). Phosphate buffered saline (PBS) was used for washing human bronchial epithelial culture mucosal surfaces. HBECs were maintained at an air-liquid interface in a modified bronchial epithelial growth medium (BEGM) with 5% CO2 at 37° C. and used 2-5 weeks after seeding on 12-mm T-clear inserts (Corning-Costar, Corning, N.Y., USA) (Randell, Methods Mol. Biol. 742:285 (2011)).
A single-barreled potential difference-sensing electrode was placed in the airway surface liquid by micromanipulator and used in conjunction with a macroelectrode in the serosal solution to measure transepithelial voltage using a voltmeter (World Precision Instruments). […] Transepithelial resistance was routinely measured using the EVOM system (WPI) as previously described (Tarran et al., J. Gen. Physiol. 127:591 (2006)).

| Molecule | urinary Na+ excretion (UNaV) [1] | transepithelial voltage (ENaC; 50 ng/ml rSPLUNC1 in 20 μl Ringer, PBS-washed cultures) | regulation of transepithelial voltage in cultures lacking SPLUNC1 (ENaC; SPLUNC1 shRNA knockdown, 50 ng/ml rSPLUNC1) | transepithelial voltage, cultures not pre-washed (ENaC; airway surface liquid left to accumulate for 24 h) | onset of inhibition (ENaC; human bronchial epithelial cultures, FIG. 2C, 2D) [min] | transepithelial voltage, addition to amiloride-treated cultures (ENaC; rSPLUNC1 added to the same amiloride-treated cultures, n=12) | rate of inhibition of the transepithelial voltage (ENaC; rSPLUNC1 vs aprotinin addition, effects not additive) |
| --- | --- | --- | --- | --- | --- | --- | --- |
| GGLPVPLDQTLPLNVNPA [S18] | induces natriuresis |  |  |  |  |  |  |
| B1 |  | significantly reduced the transepithelial voltage | restored | without further effect | 30 to 60 | without further effect | identical rates |
